Patent US9828595B2, “Thermostable asparaginase variants and polynucleotides encoding same” (Novozymes A/S, priority 2012, dated 2017)

How the values were obtained:
[1] = target: T1, Aspergillus oryzae asparaginase, wild type (Wt enzyme), SEQ ID NO: 2 (Aspergillus oryzae, UniProt Q2URI4); assay: Effect of xylitol on asparaginase activity, Wt enzyme; format: biochemical; conditions: buffer 70.8 g + 29.2 g xylitol, pH 6, 37° C.; activity in buffer without xylitol = 100%
T1 construct: Nessler assay with xylitol or NaCl
Procedure: (§1) Example 13: Asparaginase Activity Assay—Used in Example 14
(§2) Asparaginase hydrolyses asparagine to aspartic acid and ammonium. Produced ammonium is determined using Nessler's reagent.
(§3) Activity is determined relative to a standard of known activity in ASNU or to a relevant control sample. Activity as determined according to this assay is referred to as nASNU.
(§4) Mix buffer and asparagine and let it equilibrate at 37° C. for 10-15 min. Add enzyme standard or sample and incubate for 10 min at 37° C. Add TCA to stop the reaction.
(§5) Ammonium Determination (Nessler Assay)
(§6) Milli-Q water, sample and Nessler's reagent is added to the microtiter plate. Shake for 10 sec and then leave to incubate for 10 min before shaking again and reading at 440 nm.
(§7) Example 14: Testing the Effect of NaCl and Xylitol on Enzyme Activity
(§8) To test the effect of NaCl or xylitol on asparaginase activity, the compounds were added directly to the buffer and asparaginase activity measured using the standard assay described in Example 13. NaCl was tested in two concentrations and xylitol in one.
(§9) Buffer: 20 mM citric acid buffer, pH 6, 0.001% triton X100:
(§10) Xylitol: 70.8 g buffer+29.2 g xylitol
(§11) The measured activity in the presence of either NaCl or xylitol was compared to the activity in buffer without NaCl and xylitol (set as 100%).

[2] = target: T2, Aspergillus niger asparaginase, wild type, SEQ ID NO: 10 (Aspergillus niger, UniProt A2QBE5); assay: Effect of xylitol on asparaginase activity, A. niger wt; format: biochemical; conditions: buffer 70.8 g + 29.2 g xylitol, pH 6, 37° C.; activity in buffer without xylitol = 100%
T2 construct: enzyme preparation tested in Nessler assay
T2 sequence (A2QBE5 18-378): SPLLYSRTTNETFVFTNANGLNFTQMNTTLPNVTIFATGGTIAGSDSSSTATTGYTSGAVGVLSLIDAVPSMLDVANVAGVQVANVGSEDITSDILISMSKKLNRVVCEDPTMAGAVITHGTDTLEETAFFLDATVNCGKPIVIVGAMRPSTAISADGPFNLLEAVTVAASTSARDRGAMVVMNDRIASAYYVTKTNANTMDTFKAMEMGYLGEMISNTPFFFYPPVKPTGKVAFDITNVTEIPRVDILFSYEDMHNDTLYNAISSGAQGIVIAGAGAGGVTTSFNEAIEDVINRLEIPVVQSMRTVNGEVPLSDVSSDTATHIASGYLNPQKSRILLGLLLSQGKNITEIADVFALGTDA
Procedure: as §1, §2, §3, §4, §5, §6, §7, §8, §9, §10, §11

[3] = substrate: NC(=O)C[C@H](N)C(=O)O; assay: Km and kcat determination, JN161; format: biochemical, Aspergillus oryzae; conditions: other: L-asparagine 0.22-26.6 mM, pH 5.0, 50° C., 10 min
Procedure: (§12) Example 15: Km and Kcat Determination
(§13) Purified enzyme was diluted with 20 mM sodium acetate buffer pH 5.5 to a solution of a specified activity around 2 rASNU/ml. Ten microliters of enzyme solution was added to 100 microL of preincubated substrate solution containing L-asparagine in different concentration (0.22-26.6 mM) constructed by dissolving L-asparagine monohydrate in 100 mM sodium acetate buffer pH 5.0 including 0.02% TritonX-100. After 10 min incubation at 50° C., the amount of generated ammonia in the reaction mixture was measured by using Ammonia Test Kit (Wako Pure Chemicals, Japan) following the package insert protocol. The Km and Vmax were determined from Michaelis-Menten equation, and kcat was calculated using Vmax.

[4] = substrate: NC(=O)C[C@H](N)C(=O)O; assay: Km and kcat determination, JN181; format: biochemical, Aspergillus oryzae; conditions: other: L-asparagine 0.22-26.6 mM, pH 5.0, 50° C., 10 min
Procedure: as §12, §13

[5] = substrate: NC(=O)C[C@H](N)C(=O)O; assay: Km and kcat determination, JN180; format: biochemical, Aspergillus oryzae; conditions: other: L-asparagine 0.22-26.6 mM, pH 5.0, 50° C., 10 min
Procedure: as §12, §13

[6] = substrate: NC(=O)C[C@H](N)C(=O)O; assay: Km and kcat determination, JN167; format: biochemical, Aspergillus oryzae; conditions: other: L-asparagine 0.22-26.6 mM, pH 5.0, 50° C., 10 min
Procedure: as §12, §13

[7] = substrate: NC(=O)C[C@H](N)C(=O)O; assay: Km and kcat determination, JN182; format: biochemical, Aspergillus oryzae; conditions: other: L-asparagine 0.22-26.6 mM, pH 5.0, 50° C., 10 min
Procedure: as §12, §13

[8] = substrate: NC(=O)C[C@H](N)C(=O)O; assay: Km and kcat determination, JN183; format: biochemical, Aspergillus oryzae; conditions: other: L-asparagine 0.22-26.6 mM, pH 5.0, 50° C., 10 min
Procedure: as §12, §13

[9] = substrate: NC(=O)C[C@H](N)C(=O)O; assay: Km and kcat determination, JN178; format: biochemical, Aspergillus oryzae; conditions: other: L-asparagine 0.22-26.6 mM, pH 5.0, 50° C., 10 min
Procedure: as §12, §13

[10] = substrate: NC(=O)C[C@H](N)C(=O)O; assay: Km and kcat determination, WT; format: biochemical, Aspergillus oryzae; conditions: other: L-asparagine 0.22-26.6 mM, pH 5.0, 50° C., 10 min
Procedure: as §12, §13

For OC[C@@H](O)[C@H](O)[C@@H](O)CO [xylitol], the “% activity xylitol” value [1] was 158% and the “% activity xylitol” value [2] was 176%.

B1: Aspergillus oryzae asparaginase variant JN161: JN070 (N70K S307A A323R T327V A349Q S351A V353I, SEQ ID NO: 4) with K122A P241E K290V S299A S338W (Aspergillus … (protein)
chain: ATDSNVTYVFTNPNGLNFTQMNTTLPNVTIFATGGTIAGSSADKTATTGYKAGAVGIQTLIDAVPEMLNVANVAGVQVTNVGSPDITSDILLRLSAQINEVVCNDPTMAGAVVTHGTDTLEESAFFLDATVNCRKPVVIVGAMRPSTAISADGPLNLLQSVTVAASPKARDRGALIVMNDRIVSAFYASKTNANTVDTFKAIEMGNLGEVVSNKEYFFYPPVKPTGKTEVDIRNITSIPRVDILYSYEDMHNDTLYSAIDNGAVGIVIAGSGAGSVSTPFAAAMEDITTKHNIPIVRSTRVGNGEVPSSAEWSQIASGYLNPQKARILLGLLLAQGKSIEEMRAVFERIGVA
notes: purified; expressed in Aspergillus
Work on B1 yielded a Km [3] of 690 µM and a kcat [3] of 172 s⁻¹.

B2: Aspergillus oryzae asparaginase variant JN181: JN070 (N70K S307A A323R T327V A349Q S351A V353I, SEQ ID NO: 4) with K122A K240R P241E K253R S299A S334P E337S … (protein)
chain: ATDSNVTYVFTNPNGLNFTQMNTTLPNVTIFATGGTIAGSSADKTATTGYKAGAVGIQTLIDAVPEMLNVANVAGVQVTNVGSPDITSDILLRLSAQINEVVCNDPTMAGAVVTHGTDTLEESAFFLDATVNCRKPVVIVGAMRPSTAISADGPLNLLQSVTVAASPKARDRGALIVMNDRIVSAFYASKTNANTVDTFKAIEMGNLGEVVSNREYFFYPPVKPTGRTEVDIRNITSIPRVDILYSYEDMHNDTLYSAIDNGAKGIVIAGSGAGSVSTPFAAAMEDITTKHNIPIVRSTRVGNGEVPPSASSSQIASGYLNPQKARILLGLLLAQGKSIEEMRAVFERIGVA
notes: as for B1
B2 showed a Km [4] of 580 µM and a kcat [4] of 138 s⁻¹.

B3: Aspergillus oryzae asparaginase variant JN180: JN070 (N70K S307A A323R T327V A349Q S351A V353I, SEQ ID NO: 4) with K122A K240R P241E S299A S334P E337S … (protein)
chain: ATDSNVTYVFTNPNGLNFTQMNTTLPNVTIFATGGTIAGSSADKTATTGYKAGAVGIQTLIDAVPEMLNVANVAGVQVTNVGSPDITSDILLRLSAQINEVVCNDPTMAGAVVTHGTDTLEESAFFLDATVNCRKPVVIVGAMRPSTAISADGPLNLLQSVTVAASPKARDRGALIVMNDRIVSAFYASKTNANTVDTFKAIEMGNLGEVVSNREYFFYPPVKPTGKTEVDIRNITSIPRVDILYSYEDMHNDTLYSAIDNGAKGIVIAGSGAGSVSTPFAAAMEDITTKHNIPIVRSTRVGNGEVPPSASSSQIASGYLNPQKARILLGLLLAQGKSIEEMRAVFERIGVA
notes: as for B1
In the case of B3, the Km [5] is reported as 830 µM and the kcat [5] is reported as 185 s⁻¹.

B4: Aspergillus oryzae asparaginase variant JN167: JN070 (N70K S307A A323R T327V A349Q S351A V353I, SEQ ID NO: 4) with K122A P241E S299A S334P (Aspergillus oryzae … (protein)
chain: ATDSNVTYVFTNPNGLNFTQMNTTLPNVTIFATGGTIAGSSADKTATTGYKAGAVGIQTLIDAVPEMLNVANVAGVQVTNVGSPDITSDILLRLSAQINEVVCNDPTMAGAVVTHGTDTLEESAFFLDATVNCRKPVVIVGAMRPSTAISADGPLNLLQSVTVAASPKARDRGALIVMNDRIVSAFYASKTNANTVDTFKAIEMGNLGEVVSNKEYFFYPPVKPTGKTEVDIRNITSIPRVDILYSYEDMHNDTLYSAIDNGAKGIVIAGSGAGSVSTPFAAAMEDITTKHNIPIVRSTRVGNGEVPPSAESSQIASGYLNPQKARILLGLLLAQGKSIEEMRAVFERIGVA
notes: as for B1
B4 showed a Km [6] of 670 µM and a kcat [6] of 127 s⁻¹.

B5: Aspergillus oryzae asparaginase variant JN182: JN070 (N70K S307A A323R T327V A349Q S351A V353I, SEQ ID NO: 4) with K122A P241E S299A S334P E337S (Aspergillus … (protein)
chain: ATDSNVTYVFTNPNGLNFTQMNTTLPNVTIFATGGTIAGSSADKTATTGYKAGAVGIQTLIDAVPEMLNVANVAGVQVTNVGSPDITSDILLRLSAQINEVVCNDPTMAGAVVTHGTDTLEESAFFLDATVNCRKPVVIVGAMRPSTAISADGPLNLLQSVTVAASPKARDRGALIVMNDRIVSAFYASKTNANTVDTFKAIEMGNLGEVVSNKEYFFYPPVKPTGKTEVDIRNITSIPRVDILYSYEDMHNDTLYSAIDNGAKGIVIAGSGAGSVSTPFAAAMEDITTKHNIPIVRSTRVGNGEVPPSASSSQIASGYLNPQKARILLGLLLAQGKSIEEMRAVFERIGVA
notes: as for B1
B5 was tested, and the Km [7] was 910 µM and the kcat [7] was 186 s⁻¹.

B6: Aspergillus oryzae asparaginase variant JN183: JN070 (N70K S307A A323R T327V A349Q S351A V353I, SEQ ID NO: 4) with K122A P241E S299A S334P S338W (Aspergillus … (protein)
chain: ATDSNVTYVFTNPNGLNFTQMNTTLPNVTIFATGGTIAGSSADKTATTGYKAGAVGIQTLIDAVPEMLNVANVAGVQVTNVGSPDITSDILLRLSAQINEVVCNDPTMAGAVVTHGTDTLEESAFFLDATVNCRKPVVIVGAMRPSTAISADGPLNLLQSVTVAASPKARDRGALIVMNDRIVSAFYASKTNANTVDTFKAIEMGNLGEVVSNKEYFFYPPVKPTGKTEVDIRNITSIPRVDILYSYEDMHNDTLYSAIDNGAKGIVIAGSGAGSVSTPFAAAMEDITTKHNIPIVRSTRVGNGEVPPSAEWSQIASGYLNPQKARILLGLLLAQGKSIEEMRAVFERIGVA
notes: as for B1
In the case of B6, the Km [8] is reported as 910 µM and the kcat [8] is reported as 189 s⁻¹.

B7: Aspergillus oryzae asparaginase variant JN178: JN070 (N70K S307A A323R T327V A349Q S351A V353I, SEQ ID NO: 4) with K122A K240R P241E S299A S334P (Aspergillus … (protein)
chain: ATDSNVTYVFTNPNGLNFTQMNTTLPNVTIFATGGTIAGSSADKTATTGYKAGAVGIQTLIDAVPEMLNVANVAGVQVTNVGSPDITSDILLRLSAQINEVVCNDPTMAGAVVTHGTDTLEESAFFLDATVNCRKPVVIVGAMRPSTAISADGPLNLLQSVTVAASPKARDRGALIVMNDRIVSAFYASKTNANTVDTFKAIEMGNLGEVVSNREYFFYPPVKPTGKTEVDIRNITSIPRVDILYSYEDMHNDTLYSAIDNGAKGIVIAGSGAGSVSTPFAAAMEDITTKHNIPIVRSTRVGNGEVPPSAESSQIASGYLNPQKARILLGLLLAQGKSIEEMRAVFERIGVA
notes: as for B1
Molecule B7 has a Km [9] of 880 µM and a kcat [9] of 127 s⁻¹.

B8: Aspergillus oryzae asparaginase, wild type (WT), SEQ ID NO: 2 (Aspergillus oryzae RIB40) (protein)
chain: ATDSNVTYVFTNPNGLNFTQMNTTLPNVTIFATGGTIAGSSADNTATTGYKAGAVGIQTLIDAVPEMLNVANVAGVQVTNVGSPDITSDILLRLSKQINEVVCNDPTMAGAVVTHGTDTLEESAFFLDATVNCRKPVVIVGAMRPSTAISADGPLNLLQSVTVAASPKARDRGALIVMNDRIVSAFYASKTNANTVDTFKAIEMGNLGEVVSNKPYFFYPPVKPTGKTEVDIRNITSIPRVDILYSYEDMHNDTLYSAIDNGAKGIVIAGSGSGSVSTPFSAAMEDITTKHNIPIVASTRTGNGEVPSSAESSQIASGYLNPAKSRVLLGLLLAQGKSIEEMRAVFERIGVA
notes: purified
For B8, the Km [10] was 950 µM and the kcat [10] was 121 s⁻¹.
